These results are taken from the nanobody polyreactivity screen of Harvey et al. (2022).

The series can be described thus: yeast display, Sf9 membrane polyspecificity reagent, FACS + sequencing; frameworks hold sequencing errors. In a few lines:
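Synthetic nanobody libraries on Saccharomyces cerevisiae BJ5465 were galactose-induced for 36–48 hours, stained 1 hour at 4 °C with 10% biotinylated, detergent-solubilized Sf9 membrane reagent and enriched on streptavidin microbeads. FACS then separated cells into low and high (top ~1%) gates by anti-HA (expression) and streptavidin (reagent binding) fluorescence. Genes were colony-PCR amplified, MiSeq 2 × 250 sequenced and CDR-length filtered. A clone's polyreactivity label is that of its gate of origin.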
As for “QVQLVESGGGLVQAGGSLRLSCAASGRIFRIYGMGWYRQAPGKERELVADISIGGRTTYADSVKGRFTISRDNAKNTVYLQMNSLKPEDTAVYYCKTPYWYRIGQRLAWYDYWGQGTQVTVSS”, the “polyreactivity (PSR sort gate)” value is reported as “low polyreactivity”.
The result for “QVQLVESGGGLVQAGGSLRLSCAASGRIFRKYAMGWYRQAPGKERELVAVINDRGGSTYYADSVKGRFTISRDNAKNTVYLQMNSLKPEDTAVYYCNATGPKKDTARYDYWGQGTQVTVSS” reads “low polyreactivity”; that for “QVQLVESGGGLVQAGGSLRLSCAASGRIFRKYGMGWYRPAPGKERELVAAITGGGSTYYADSVKGRFTISRDNAKNTVYVQMNSLKPEDTAVYYCARGGYRWYPYVYVPSPFDYWGQGTQVTVSS”, “high polyreactivity”; that for “QVQLVESGGGLVQAGGSLRLSCAASGRIFRLYAMGWYRQAPGKERELVAAISKSGGSTYYADSVKGRFTISRDNAKNTVYLQMNSLKPEDTAVYYCAADYRTHGGYEGTFDYWGQGTQVTVSS”, “low polyreactivity”.
The result for “QVQLVESGGGLVQAGGSLRLSCAASGRIFRLYAMGWYRQAPGKERELVATITSGGTYYADSVKGRFTISRDNAKNTVYLQMNSLKPEDTAVYYFAAVVYPGYVGSQEYDYWGQGTQVTVSS” reads “low polyreactivity”.
In the case of “QVQLVESGGGLVQAGGSLRLSCAASGRIFRNNAMGWYRQATGKERELVATISSRGGSTYYADSVKGRFTISSDNAKNNVYLQMNSLKPEDTAVYYCNKRWLHWAGYDYWGQGTQVTVSS”, the “polyreactivity (PSR sort gate)” value is reported as “high polyreactivity”.
The result for “QVQLVESGGGLVQAGGSLRLSCAASGRIFRPYAMGWYRQAPGKERELVASITRGGSTDYADSVKGRFTISRDNAKNTVYLQMNSLKPEDTAVYYCNKVWRFGYYGSYYWGQGTQVTVSS” reads “high polyreactivity”; that for “QVQLVESGGGLVQAGGSLRLSCAASGRIFRPYVMGWYRQAPGKERELVAAISYRGSSTYYADSVKGRFTISRDNAKNTVYLQMNSLKPEDTAVYYCAAYPRVYWTKEYDYWGQGTQVTVSS”, “high polyreactivity”.
Under “QVQLVESGGGLVQAGGSLRLSCAASGRIFRQYAMGLYRQAPGKERELVAAISRRGTSTYYADSVKGRFTISRDNAKNTVYLQMNSLKPEDTAVYYCAAGGVYSIYRTSRVGYDYWGQGTQVTVSS” stands “high polyreactivity”; under “QVQLVESGGGLVQAGGSLRLSCAASGRIFRRNAMGWYRQAPGKERELVASITRGGRTSYADSVKGRFTISRDNAKNTVYLQMNSLKPEDTAVYYCNARSYQSARFRGGYWGQGTQVTVSS”, “high polyreactivity”; under “QVQLVESGGGLVQAGGSLRLSCAASGRIFRRSALGWSRQAPGKEREFVAAISSGGSTYYADSVKGRFTISRDNAKKYRLFTDEQPETGRYRGLLLRCVRYDVNLYDYWGHGTQVTVSS”, “low polyreactivity”.
The result for “QVQLVESGGGLVQAGGSLRLSCAASGRIFRRYAMGWYRQAHGKERELVAAITSGGRTYYADSVKGRFTISRDNAKNTVYLQMNSLKPEDTAVYYCAAKWTVGELDYWGQGTQVTVSS” reads “high polyreactivity”; that for “QVQLVESGGGLVQAGGSLRLSCAASGRIFRRYAMGWYRQAPGKEREFVAAITKSGGSTYYADSVKGRFTISRDNAKNTVYLQMNSLKPEDTAVYDCNAYVIRALGYGGYDYWGQGTQVTVSS”, “high polyreactivity”.
As for “QVQLVESGGGLVQAGGSLRLSCAASGRIFRRYAMGWYRQAPGKEREFVAAITWSGSSTYYADSVKGRFTISRDNAKNTVYLQMNSLKPEDTAVYYCAARHYAVRRSRYPGKLGYYWGQGTQVTVSS”, the “polyreactivity (PSR sort gate)” value is “high polyreactivity”.
As to “QVQLVESGGGLVQAGGSLRLSCAASGRIFRRYASGWYRQAPGKEMELDADITYGVDSTYYADSVKGRFTISRDNAKNTVYLQMNSLKPEDTAVYYCIADRTEDMLYRFVGVTYGYWGQGTQVTVSS”, the “polyreactivity (PSR sort gate)” value was “high polyreactivity”.
Under “QVQLVESGGGLVQAGGSLRLSCAASGRIFRRYTMGWYRQAPGKERELVAAISSGGSTYYADSVKGRFTISRDNAKNTVYLQMNSLKPEDTAVYYCNADSRSQPYYPEFDYWGQGTQVTVSS” stands “low polyreactivity”; under “QVQLVESGGGLVQAGGSLRLSCAASGRIFRRYTMGWYRQAPGKERELVAAISSGGTTYYADSVKGRFTISRDNAKNTVYLQMNSLKPEDTAVYYCAAPWRSSIPHYEYWGQGTQVTVSS”, “high polyreactivity”.
Under “QVQLVESGGGLVQAGGSLRLSCAASGRIFRRYVMGWYRQAPGKERELVARIRIRDSNTYYADSVKGRFTISRDNAKNTVYLQMNSLKPEDTAVYYCNADTWADRSTYDYWGQGTQVTVSS” stands “low polyreactivity”.
On to “QVQLVESGGGLVQAGGSLRLSCAASGRIFRSNGMGWYRQAPGKERELVAAITYRGGNTYYADSVKGRFTISRDNAKNTVYFQMNSLKPEDTAVYYCANQGVRRHYGYDYWGQGTQVTVSS”, for which the “polyreactivity (PSR sort gate)” value was “high polyreactivity”.
The result for “QVQLVESGGGLVQAGGSLRLSCAASGRIFRTKAMGWYRLAPGKERELVAAITFSGGGTYYADSVKGRFTISRDNAKNTVYLQMNSLKPEDTAVYYCATDWYYEYYYWGQGTQVTVSS” reads “low polyreactivity”; that for “QVQLVESGGGLVQAGGSLRLSCAASGRIFRTNAMGWYRQAHGKEWELVAAITRGGTTNYADSVKGRFTISRDNAKNTVYLQMNSLKPEDTAVYYCAVDQGYVVRLAWIYGYWGQGTQVTVSS”, “low polyreactivity”; that for “QVQLVESGGGLVQAGGSLRLSCAASGRIFRTYAMGWYRQAPGKERELVDAISYSGGSTFYADSVKRRFTISRDNAKNTVYLQMNSLKPEYTAVYYCAADSRAKRYYWGQGTQVTVSS”, “high polyreactivity”.
The result for “QVQLVESGGGLVQAGGSLRLSCAASGRIFRTYTMGWYRQAPGKERELVAAISRSGASTYYADSVKGRFTISRDNAKNTVYLQMNSLKPEDTAVYYCAKLILSTALVSRPGVDYWGQGTQVTVSS” reads “high polyreactivity”; that for “QVQLVESGGGLVQAGGSLRLSCAASGRIFRVNALGWYRQATRKERELVAGITQGDGSTYYADSVKGRFTISRDNAKNTVYLQMNSLKPEDTAVYYCAAEGFYTTGSPYSGGLDYWGQGTQVTVSS”, “low polyreactivity”.
For the sequence “QVQLVESGGGLVQAGGSLRLSCAASGRIFRVNAMGWYRQAPGKERELVAAINFSGTSTYYADSVKGRFTISRDNAKNTVYLQMNSLKPEDTAVYYCNALTTSNSGRFYYWGQGTQVTVSS”, the “polyreactivity (PSR sort gate)” value is “low polyreactivity”.
Regarding “QVQLVESGGGLVQAGGSLRLSCAASGRIFRVNAMGWYRQAPGKERELVATITGSGGSTYYADSVKGRFTISRDNAKNTVYLQMNSLKPEDTAVYYCAAVSYWPTDRYYSWGQGTQVTVSS”, the “polyreactivity (PSR sort gate)” value was “low polyreactivity”.
In the case of “QVQLVESGGGLVQAGGSLRLSCAASGRIFRVYAMGWYRQAPGKERELVAVISARGGNTYYADSVKGRFTISRDNAKNTVYLQMNSMKPEDTAVYYCAARGRMDYWGQGTQVTVSS”, the “polyreactivity (PSR sort gate)” value is reported as “high polyreactivity”.
The result for “QVQLVESGGGLVQAGGSLRLSCAASGRIFRWNAMGWYRQAPGKERELVAAISRSGGSTYYADSVKRRFTISRDNAKNTVYLQMNSLKPEDTAVYYCNTRFSTFTAPGYYYWGQGTQVTVSS” reads “high polyreactivity”; that for “QVQLVESGGGLVQAGGSLRLSCAASGRIFRWYAMGWNRQAPGQERELVAAITRGDITNYADSVKGRFTISRDNAKNTVYLQMNSLKPEDTAVYYCNAQWYDIYDYWGQGSQVTVSS”, “high polyreactivity”.
Take “QVQLVESGGGLVQAGGSLRLSCAASGRIFRWYAMGWYRQAPGKEREIVAAITSSGGSTYYADSVKGRFTISRDNAKNTVYLQMNSLKPEDTAFYYCAALLYLGGSYSRGYYWGQGTQVTVSS”: the “polyreactivity (PSR sort gate)” value is on record as “high polyreactivity”.
Under “QVQLVESGGGLVQAGGSLRLSCAASGRIFRWYAMGWYRQAPGKERELVAAISYSGGSTYYADSVKGRFTISRDNAKNTVYLQMNRLKPEDTAVYYCNAVLYTPVYDGFDSWGQGTQVTVSS” stands “high polyreactivity”; under “QVQLVESGGGLVQAGGSLRLSCAASGRIFRWYAMGWYRQAPGKERELVATISSTGGSTYYADSVKGRFTISRDNAKNTVYLQMNSLKPEDTAVYYCAVDPRGHEGVRYNYWGQGTQVTVSS”, “low polyreactivity”.
“QVQLVESGGGLVQAGGSLRLSCAASGRIFRYKAMGWYRQAPGKERELVAAISGSGGSTYYADSVKGRFTISRDNAKNTVYLQMNSLKPEDTAVYYCNALYWIFNHGGYDYWGQGTQVTVSS”: the “polyreactivity (PSR sort gate)” value was “low polyreactivity”.
As for “QVQLVESGGGLVQAGGSLRLSCAASGRIFRYNAMGLYRQAPGKERELVAAISRGGSSTYYADSVKGRFTISRDNAKNTVYLQMNSLKPEDTAVYYCNARSVVREFNYWGQGTQVTVSS”, the “polyreactivity (PSR sort gate)” value is “high polyreactivity”.
“QVQLVESGGGLVQAGGSLRLSCAASGRIFRYNAMGWYRQAPGKERELVAAISFSTTSPYYADSVKGRFTISRDNAKNTVYLQMNSLKPEDTAVYNCNTPGLPIDSEYDYWGQGTQVTVSS”: the “polyreactivity (PSR sort gate)” value was “low polyreactivity”.
The result for “QVQLVESGGGLVQAGGSLRLSCAASGRIFRYNAMGWYRQAPGKERELVAAISTSGTRTFYADSVKGRFTISRDNAMKTVYLQMNSVKPEDTAVYYCNKVAGPGKLGPYYYWGQGTQVTVSS” reads “high polyreactivity”; that for “QVQLVESGGGLVQAGGSLRLSCAASGRIFRYNAMGWYRQAPGKERELVAAITNGGSTNYADSVKGRFTISRDNAKNTVYLQMNSLKPEDTAVYYCNAQGRRYSQRYYYWGQGTQVTVSS”, “high polyreactivity”; that for “QVQLVESGGGLVQAGGSLRLSCAASGRIFRYNAMGWYRQAPGKERELVASITSAGSTIYADSVKGRFTISRDNAKNTVYLQMNSLKPEDTAVYYCNKRRAYGYYLFDYWGQGTQVTVSS”, “high polyreactivity”.
Under “QVQLVESGGGLVQAGGSLRLSCAASGRIFRYNAMGWYRQAPGKERELVATISRGGGSTYYADSVKGRFTISLDNAKNTVYLQMNSLKPEDTAVYYCATRYYQDIVGYSRYDYWGQGTQVTVSS” stands “high polyreactivity”.
Under “QVQLVESGGGLVQAGGSLRLSCAASGRIFRYNTMGWYRQAHGKERELVAAIDRGSSTNYADSVKGRFTISRDNAKNTVYLQMNSLKPEDTAVYYCAARVFRPYGSLYDYWGQGTQVTVSS” stands “high polyreactivity”; under “QVQLVESGGGLVQAGGSLRLSCAASGRIFRYYAKGWYRQATGKERELVAAISWSGGSTYYADSVKGRFTISRDNAKNTVYLQMHSLKPEDTAVYYCNAAVTQFTHRWRRRITFDYWGQGTQVTVSS”, “high polyreactivity”.
